The values below come from US20150258192A1, “COMPOSITIONS AND METHODS FOR PREVENTING OR TREATING CHRONIC LUNG ALLOGRAFT DYSFUNCTION (CLAD) AND IDIOPATHIC PULMONARY FIBROSIS (IPF)” (priority 2014, published 2015).

No end group written: not given here.

What all share (test): Kinase Profiling Assay
What all share (type): biochemical
What all share (details): peptide 100 μM

One assay addresses T1, Itk(h) (Homo sapiens, UniProt Q08881).
T1 construct: purchased Millipore
T1 sequence (Q08881 1-620): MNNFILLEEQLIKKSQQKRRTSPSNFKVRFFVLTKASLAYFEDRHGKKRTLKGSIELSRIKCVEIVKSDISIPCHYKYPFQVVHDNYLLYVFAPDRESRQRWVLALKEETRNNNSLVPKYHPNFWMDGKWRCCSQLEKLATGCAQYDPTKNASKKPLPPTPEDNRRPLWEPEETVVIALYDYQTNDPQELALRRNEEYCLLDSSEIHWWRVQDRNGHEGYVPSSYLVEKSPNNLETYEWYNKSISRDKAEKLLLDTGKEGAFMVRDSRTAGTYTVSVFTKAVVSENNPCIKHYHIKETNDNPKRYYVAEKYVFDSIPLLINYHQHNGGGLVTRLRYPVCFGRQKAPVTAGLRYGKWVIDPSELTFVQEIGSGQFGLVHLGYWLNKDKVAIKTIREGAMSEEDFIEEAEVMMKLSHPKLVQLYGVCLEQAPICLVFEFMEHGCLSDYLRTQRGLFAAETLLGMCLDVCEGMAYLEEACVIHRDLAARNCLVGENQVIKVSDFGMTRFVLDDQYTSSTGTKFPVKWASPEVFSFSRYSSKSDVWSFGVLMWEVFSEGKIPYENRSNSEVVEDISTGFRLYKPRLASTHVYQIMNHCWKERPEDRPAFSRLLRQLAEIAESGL
The procedure, abridged:
(§1)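 Duplicate wells; [radiolabeled] ATP phosphate onto cationic substrate; filter capture (negatively charged membrane); scintillation count; % of 100% activity control. Selectivity screen of MK2 peptide inhibitors, 266 human kinases.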

The next assay has as its target T2, Rse(h) (Homo sapiens, UniProt Q06418).
T2 sequence (Q06418 41-890): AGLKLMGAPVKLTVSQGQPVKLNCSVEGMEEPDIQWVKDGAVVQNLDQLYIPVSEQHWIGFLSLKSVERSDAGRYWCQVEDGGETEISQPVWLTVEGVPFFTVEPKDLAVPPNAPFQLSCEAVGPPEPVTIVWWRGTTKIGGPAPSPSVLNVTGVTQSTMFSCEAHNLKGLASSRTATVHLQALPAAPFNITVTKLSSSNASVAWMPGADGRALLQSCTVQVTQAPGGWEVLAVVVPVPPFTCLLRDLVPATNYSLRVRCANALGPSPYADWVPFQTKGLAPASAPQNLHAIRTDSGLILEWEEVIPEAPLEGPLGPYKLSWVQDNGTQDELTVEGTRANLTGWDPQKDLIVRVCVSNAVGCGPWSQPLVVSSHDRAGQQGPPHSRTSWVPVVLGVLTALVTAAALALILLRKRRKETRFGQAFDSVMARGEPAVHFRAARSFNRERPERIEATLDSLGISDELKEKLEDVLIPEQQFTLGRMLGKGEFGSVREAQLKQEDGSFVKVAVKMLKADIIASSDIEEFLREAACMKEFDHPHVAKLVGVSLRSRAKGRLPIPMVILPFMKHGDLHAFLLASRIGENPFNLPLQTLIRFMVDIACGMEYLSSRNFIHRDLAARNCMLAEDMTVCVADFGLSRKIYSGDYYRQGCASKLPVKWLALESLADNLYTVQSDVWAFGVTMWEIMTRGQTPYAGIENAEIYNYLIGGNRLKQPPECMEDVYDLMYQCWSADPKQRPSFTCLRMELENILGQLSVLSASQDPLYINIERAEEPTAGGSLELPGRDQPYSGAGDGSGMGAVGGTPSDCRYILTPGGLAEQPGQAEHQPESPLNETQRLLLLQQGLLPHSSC
The procedure, abridged: as §1

For a further assay, the target named is Abl(Q252H)(h) (Homo sapiens, UniProt P00519, Q252H). Summed up: as §1
A further assay addresses T3, TBK1(h) (Homo sapiens, UniProt Q9UHD2).
T3 construct: purchased Millipore
T3 sequence (Q9UHD2 1-729): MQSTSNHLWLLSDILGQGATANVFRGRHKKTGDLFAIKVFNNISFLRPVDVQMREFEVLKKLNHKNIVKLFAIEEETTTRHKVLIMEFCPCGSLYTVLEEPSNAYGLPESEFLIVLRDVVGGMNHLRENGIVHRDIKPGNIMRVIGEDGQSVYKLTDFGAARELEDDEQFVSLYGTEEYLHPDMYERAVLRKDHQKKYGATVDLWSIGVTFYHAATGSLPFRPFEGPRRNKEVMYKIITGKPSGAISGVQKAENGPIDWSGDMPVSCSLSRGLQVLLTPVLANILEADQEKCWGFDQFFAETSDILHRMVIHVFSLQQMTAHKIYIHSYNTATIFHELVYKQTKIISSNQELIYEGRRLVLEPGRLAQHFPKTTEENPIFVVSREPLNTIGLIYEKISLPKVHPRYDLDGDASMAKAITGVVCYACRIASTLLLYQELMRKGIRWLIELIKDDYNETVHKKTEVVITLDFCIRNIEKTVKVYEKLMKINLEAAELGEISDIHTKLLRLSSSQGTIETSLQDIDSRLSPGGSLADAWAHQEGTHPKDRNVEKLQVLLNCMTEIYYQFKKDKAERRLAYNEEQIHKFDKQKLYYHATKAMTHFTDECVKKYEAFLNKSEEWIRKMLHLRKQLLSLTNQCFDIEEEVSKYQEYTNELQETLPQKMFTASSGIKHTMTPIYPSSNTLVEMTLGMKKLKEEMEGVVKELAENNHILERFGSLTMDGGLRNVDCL
The procedure, abridged: as §1

For a further assay, the target named is T4, JNK2α2(h) (Homo sapiens, UniProt P45984).
T4 construct: purchased Millipore
Summed up: as §1

Another assay deals with T5, LOK(h) (Homo sapiens, UniProt O94804).
T5 construct: purchased Millipore
T5 sequence (O94804 whole entry): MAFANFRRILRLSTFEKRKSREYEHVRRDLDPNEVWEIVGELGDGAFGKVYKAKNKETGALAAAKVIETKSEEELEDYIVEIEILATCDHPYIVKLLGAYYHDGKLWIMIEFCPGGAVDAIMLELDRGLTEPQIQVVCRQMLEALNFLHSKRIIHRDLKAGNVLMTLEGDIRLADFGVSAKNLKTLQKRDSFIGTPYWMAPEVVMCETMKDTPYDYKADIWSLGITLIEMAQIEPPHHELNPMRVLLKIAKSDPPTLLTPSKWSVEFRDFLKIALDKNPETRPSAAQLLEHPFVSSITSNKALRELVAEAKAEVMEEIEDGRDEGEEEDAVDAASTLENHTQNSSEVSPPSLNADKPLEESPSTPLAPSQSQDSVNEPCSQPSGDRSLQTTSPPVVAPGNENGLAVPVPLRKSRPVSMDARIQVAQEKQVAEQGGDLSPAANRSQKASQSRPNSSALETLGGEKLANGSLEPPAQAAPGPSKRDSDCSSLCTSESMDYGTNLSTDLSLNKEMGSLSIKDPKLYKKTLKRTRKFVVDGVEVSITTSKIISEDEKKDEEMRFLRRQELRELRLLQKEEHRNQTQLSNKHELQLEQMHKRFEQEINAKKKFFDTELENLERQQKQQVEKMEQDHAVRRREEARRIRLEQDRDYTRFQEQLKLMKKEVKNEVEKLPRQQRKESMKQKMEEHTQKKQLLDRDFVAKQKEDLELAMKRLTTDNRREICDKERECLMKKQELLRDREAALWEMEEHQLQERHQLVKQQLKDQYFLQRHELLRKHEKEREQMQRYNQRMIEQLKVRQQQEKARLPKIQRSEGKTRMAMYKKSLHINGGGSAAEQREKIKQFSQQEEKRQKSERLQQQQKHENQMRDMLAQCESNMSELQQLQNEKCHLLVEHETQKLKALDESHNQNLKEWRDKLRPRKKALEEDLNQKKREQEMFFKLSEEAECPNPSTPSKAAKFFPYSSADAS
Summed up:
as §1

The target of the next assay is T6, Snk(h) (Homo sapiens, UniProt Q9NYY3).
T6 construct: purchased Millipore
T6 sequence (Q9NYY3 whole entry): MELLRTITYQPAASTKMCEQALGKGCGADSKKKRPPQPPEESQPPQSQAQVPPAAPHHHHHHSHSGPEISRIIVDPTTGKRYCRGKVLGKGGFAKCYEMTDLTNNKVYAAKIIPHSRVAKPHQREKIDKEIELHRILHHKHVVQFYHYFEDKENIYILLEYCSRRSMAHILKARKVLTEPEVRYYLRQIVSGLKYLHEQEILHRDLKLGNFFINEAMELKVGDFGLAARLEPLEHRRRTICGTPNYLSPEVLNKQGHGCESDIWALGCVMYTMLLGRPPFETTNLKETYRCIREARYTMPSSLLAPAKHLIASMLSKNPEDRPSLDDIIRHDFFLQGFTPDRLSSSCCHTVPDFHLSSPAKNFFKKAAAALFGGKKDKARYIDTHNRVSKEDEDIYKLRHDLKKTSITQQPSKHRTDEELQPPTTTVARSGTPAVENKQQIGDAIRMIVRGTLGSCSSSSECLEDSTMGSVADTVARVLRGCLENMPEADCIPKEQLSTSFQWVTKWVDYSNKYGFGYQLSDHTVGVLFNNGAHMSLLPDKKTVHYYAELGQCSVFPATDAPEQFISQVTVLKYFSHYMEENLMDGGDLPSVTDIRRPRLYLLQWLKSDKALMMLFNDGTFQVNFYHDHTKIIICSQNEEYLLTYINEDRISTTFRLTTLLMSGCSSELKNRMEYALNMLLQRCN
The procedure, abridged: as §1

Regarding KAFAKLAARLYRKALARQLGVAA [MMI-0400], the “% activity” value with Itk(h) is given as 63%; with Rse(h), 89%; with Abl(Q252H)(h), 98%; with TBK1(h), 39%; in the assay with JNK2α2(h), 96%; in the assay with LOK(h) it was 18%. Further, the “% activity” value with Snk(h) was 131%.

Turning to FAKLAARLYRKALARQLGVAA [MMI-0300], the “% activity” value came out at 77% with Itk(h); 88% in the assay with Rse(h); 82% in the assay with Abl(Q252H)(h); 37% in the assay with TBK1(h); 98% with JNK2α2(h); 37% with LOK(h).

Turning to YARAAARQARAKALARQLGVAA [MMI-0100], the “% activity” value at Itk(h) is given as 99%; at LOK(h), 37%; at Snk(h), 94%.

Turning to “HRRIKAWLKKIKALARQLGVAA (Mammal) [MMI-0500]”, the “% activity” value with Itk(h) came out at 7%; with Rse(h), 63%; with Abl(Q252H)(h), 40%; with TBK1(h), 16%; in the assay with JNK2α2(h), 81%; in the assay with LOK(h), 7%. Further, the “% activity” value with Snk(h) stood at 122%.

“YARAAARQARAKALNRQLGVA (Mammal) [MMI-0200]”: the “% activity” value was found to be 98% with Itk(h), 88% with Rse(h), 98% with TBK1(h) and 67% with LOK(h).
